These results are taken from publication PMC4449276.

This assay addresses chaperonin-containing TCP-1 (CCT), bovine (bovine) (UniProt Q32L40). The assay can be described thus: native gel or EMSA. A general note: In EMSA bound probe runs differently from free probe, usually more slowly.

Regarding “Hsc70ΔC_(DnaK189–192) (Hsc70ΔC with V189GAE192 changed to DnaK T185GN187) (from UniProt P19120 1-554) (domain or fragment)”, the percent of the wild-type CCT binding worked out at 18%. Regarding “Hsc70ΔC_(DnaK189–195) (Hsc70ΔC with V189GAERNV195 substituted with DnaK TGNRTI) (from UniProt P19120 1-554) (domain or fragment)”, the percent of the wild-type CCT binding stood at 6%. Substance “DnaK_(Hsc70-185–190) (DnaK with T185GNRTI190 exchanged by Hsc70 V189GAERNV195) (from UniProt P0A6Y8 1-638) (natural protein)” returned a percent of the CCT binding of Hsc70 of 64%.
